Literature values in article PMC2757091.

Assays:
Noggin = Noggin (UniProt Q13253)
Chordin = Chordin (UniProt Q9H2X0)
Cerberus = Cerberus (UniProt O95813)
Sequence of Cerberus (O95813 18-267): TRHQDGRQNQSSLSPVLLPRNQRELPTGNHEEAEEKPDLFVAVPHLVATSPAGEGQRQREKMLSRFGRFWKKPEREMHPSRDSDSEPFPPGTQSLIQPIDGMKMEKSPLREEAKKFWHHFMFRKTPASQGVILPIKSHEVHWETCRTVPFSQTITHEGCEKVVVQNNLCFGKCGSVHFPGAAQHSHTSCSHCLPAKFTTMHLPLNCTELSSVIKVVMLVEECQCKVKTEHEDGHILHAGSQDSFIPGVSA

Sequence of BMP4 (P12644 293-408): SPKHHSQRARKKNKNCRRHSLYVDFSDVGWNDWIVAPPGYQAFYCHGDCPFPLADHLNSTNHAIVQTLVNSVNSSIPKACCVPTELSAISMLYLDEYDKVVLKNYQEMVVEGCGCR
Sequence of Noggin (Q13253 28-232): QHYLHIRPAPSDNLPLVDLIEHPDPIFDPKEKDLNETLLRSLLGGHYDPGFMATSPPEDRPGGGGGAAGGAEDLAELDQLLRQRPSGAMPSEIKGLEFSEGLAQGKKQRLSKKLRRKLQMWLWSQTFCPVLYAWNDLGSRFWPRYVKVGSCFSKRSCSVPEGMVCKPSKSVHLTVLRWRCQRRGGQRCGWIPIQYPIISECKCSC
Sequence of Chordin (Q9H2X0 27-955): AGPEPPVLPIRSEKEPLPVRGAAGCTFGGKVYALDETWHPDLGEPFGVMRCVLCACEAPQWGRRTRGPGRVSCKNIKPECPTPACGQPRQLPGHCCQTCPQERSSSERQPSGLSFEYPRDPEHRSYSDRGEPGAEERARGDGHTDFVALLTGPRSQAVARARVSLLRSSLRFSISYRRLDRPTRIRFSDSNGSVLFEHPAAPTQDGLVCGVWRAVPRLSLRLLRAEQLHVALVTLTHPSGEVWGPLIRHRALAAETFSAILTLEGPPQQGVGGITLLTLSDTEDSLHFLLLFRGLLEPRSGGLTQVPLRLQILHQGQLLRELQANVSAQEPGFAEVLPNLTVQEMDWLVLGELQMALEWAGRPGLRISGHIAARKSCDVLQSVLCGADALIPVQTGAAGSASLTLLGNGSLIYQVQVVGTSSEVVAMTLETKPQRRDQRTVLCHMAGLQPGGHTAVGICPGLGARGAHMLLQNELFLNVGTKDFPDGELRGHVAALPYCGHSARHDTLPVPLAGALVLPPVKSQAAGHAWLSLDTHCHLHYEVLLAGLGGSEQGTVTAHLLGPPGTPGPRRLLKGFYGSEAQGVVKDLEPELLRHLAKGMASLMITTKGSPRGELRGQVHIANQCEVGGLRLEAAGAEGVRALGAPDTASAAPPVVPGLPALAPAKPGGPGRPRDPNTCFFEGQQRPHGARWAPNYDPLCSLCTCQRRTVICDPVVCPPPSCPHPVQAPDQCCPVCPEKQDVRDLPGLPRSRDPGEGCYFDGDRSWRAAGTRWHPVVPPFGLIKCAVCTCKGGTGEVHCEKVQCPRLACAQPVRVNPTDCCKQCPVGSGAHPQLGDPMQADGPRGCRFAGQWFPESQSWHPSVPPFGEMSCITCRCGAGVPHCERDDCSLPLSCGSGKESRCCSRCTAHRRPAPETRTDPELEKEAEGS

## BMP4 (from UniProt P12644)
Noggin
  Kd: 0.02 nM
Chordin
  Kd: 0.2 nM
Cerberus
  Kd: 0.6 nM
